Results reported in publication PMC9926122.

Target: recombinant EB1 (HS-AFM and microtubule experiments) (human) (UniProt Q15691)
Sequence (Q15691 whole entry): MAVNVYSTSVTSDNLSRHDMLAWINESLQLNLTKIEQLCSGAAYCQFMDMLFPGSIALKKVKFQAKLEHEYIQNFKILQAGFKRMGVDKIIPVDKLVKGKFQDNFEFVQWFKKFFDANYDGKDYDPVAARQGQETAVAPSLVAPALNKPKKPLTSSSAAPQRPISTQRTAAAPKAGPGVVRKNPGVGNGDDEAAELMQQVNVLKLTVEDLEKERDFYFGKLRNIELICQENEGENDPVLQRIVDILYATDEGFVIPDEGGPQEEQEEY

6xHis-tagged WT Ska1, sequence (Q96BD8 whole entry): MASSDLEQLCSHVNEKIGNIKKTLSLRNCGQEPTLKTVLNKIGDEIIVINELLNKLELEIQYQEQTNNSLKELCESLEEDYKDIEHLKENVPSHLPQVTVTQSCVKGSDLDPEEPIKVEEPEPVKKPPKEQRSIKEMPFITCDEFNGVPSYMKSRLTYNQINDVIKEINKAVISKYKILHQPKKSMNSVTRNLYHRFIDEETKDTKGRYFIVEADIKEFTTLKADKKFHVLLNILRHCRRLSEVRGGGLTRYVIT

6xHis-tagged WT Ska1 (from UniProt Q96BD8 1-255) (natural protein)
localization of Ska1 on prepolymerized MTs in vitro in the presence of EB1 (1 uM), fluorescence microscopy: WT Ska1 against Ska1 ΔSHLP (0.5 uM each): 1.6 fold
